This is an account of results in patent publication US20180244779A1 (KADMON, published 2018).

The target in one assay is T1, hPD-1-Fc (human, UniProt Q15116 25-167, limits assumed).
T1 construct: It was immobilized on the ELISA plate; also called soluble human PD-1-Fc; not shown: Fc part
In words: dose-response ELISA, immobilized hPD-1-Fc. The method, then: (§1) The binding activity of the five antibodies was examined using dose-response ELISA. The serially diluted antibodies were added to immobilized hPD-1-Fc and detected by HRP conjugated anti-hIgG Fab specific antibody. The OD450 reading was plotted vs. log antibody concentration using GraphPad Prism6. EC50 was calculated by using “dose-response” (stimulation) variable slope (four parameters)” program. The antibodies were also added to immobilized mPD-1-Fc and other Fc-fusions to determine specificity for hPD-1-Fc and to immobilized anti-human IgG fc specific antibody (anti-hFc Ab) to check the accuracy of the concentration measurement.
A general note: An ELISA detects its analyte on a solid surface through an enzyme-linked reagent.

The target in the next assay is T2, mPD-1-Fc (murine, UniProt Q02242 25-167, limits assumed).
T2 construct: also called murine PD-1; not shown: Fc part
T2 sequence (looked up): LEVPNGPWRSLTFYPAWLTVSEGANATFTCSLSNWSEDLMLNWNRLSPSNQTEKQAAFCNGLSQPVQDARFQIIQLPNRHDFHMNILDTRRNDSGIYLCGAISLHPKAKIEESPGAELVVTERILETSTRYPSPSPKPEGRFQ
In words: dose-response ELISA, immobilized mPD-1-Fc. How it is done: as §1

T1 sequence (Q15116 25-167 limits assumed): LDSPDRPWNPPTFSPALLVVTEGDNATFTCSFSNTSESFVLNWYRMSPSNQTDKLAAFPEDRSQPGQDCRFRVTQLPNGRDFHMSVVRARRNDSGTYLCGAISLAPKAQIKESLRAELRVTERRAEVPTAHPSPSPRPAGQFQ

B1: R3D6 (antibody, V domains shown)
VH: EVQLLESGGGLVQPGGSLRLSCAASGFTFSDYNMAWVRQAPGKGLEWVSSIGPSGGNTHYADSVKGRFTISRDNSKNTLYLQMNSLRAEDMAVYYCARERVEYYYYGMDVWGKGTTVTVSS
VL: QSALTQAPSVSVAPGQTARITCGGDNIESLSVHWYQQKPGQAPVLVVYDDADRPSGTPERFSGSNSGNTATLTINRAEAGDEADYYCQVWDYSSDVVVFGGGTTLTVLG
For the molecule B1, in the assay with hPD-1-Fc, the binding result is listed as “binds”.

B2: R3A1 (antibody, V domains shown)
VH: EVQLLESGGGLVQPGGSLRLSCAASGFTFSRYHMMWVRQAPGKGLEWVSSIYPSGGYTYYADSVKGRFTISRDNSKNTLYLQMNSLRAEDTAVYYCAREYFSGPDYWGQGTLVTVSS
VL: DIQMTQSPSTLSASVGDRVTITCRASQKISRWLAWYQQTPGKAPKLLIYRASDLESGVPSRFSGSGSGTEFTLTISSLQPDDFATYYCQQYNTYPYTFGQGTKLEIKR
As to B2, in the assay with hPD-1-Fc, the binding result was “binds”.

B3: R3A2 (antibody, V domains shown)
VH: EVQLLESGGGLVQPGGSLRLSCAASGFTFSWYSMLWVRQAPGKGLEWVSRIYPSGGFTYYADSVKGRFTISRDNSKNTLYLQMNSLRAEDTAVYYCARVIDIVGATGRLQHGMDVWGQGTTVTVSS
VL: QYELTQPPSVSVAPGQTAKITCGGNNIGSKSVNWYQQKTGQAPVLVVHDDSDRPSGIPERLSGSNSGNTATLTISRAEAGDEADYYCQVWDSVSDHYVFGTGTKVTVLG
B3: the binding result in the assay with hPD-1-Fc is reported as “binds”.

B4: R4B3 (antibody, V domains shown)
VH: EVQLLESGGGLVQPGGSLRLSCAASGFTFSYYWMSWVRQAPGKGLEWVSYISPSGGMTKYADSVKGRFTISRDNSKNTLYLQMNSLRAEDTAVYYCASASYDYVWGIYHYDVFDIWGQGTMVTVSS
VL: DIQMTQSPSSVSASVGDRVTITCRASQGISSWLAWYQQKPGKAPKLLIYAASSLQSGVPSRFSGSGSGTDFTLTISSLQPEDFATYYCQQANSFPLTFGGGTKVEIKR
In the case of B4, the binding result in the assay with mPD-1-Fc and with hPD-1-Fc was “binds” throughout.
